Measurements reported in doi:10.1101/2020.08.14.248047v1.

Substrate: O=C(CCc1ccc(O)cc1)c1c(O)cc(O)cc1O[C@@H]1O[C@H](CO)[C@@H](O)[C@H](O)[C@H]1O
Test: cells, lysate or membranes
Conditions: Xenopus oocytes, pH 5.0, 15 min uptake, cumulative transport assay

B1: PUP8 (AtPUP8) (Arabidopsis thaliana) (protein)
chain: MEITQVIYVNDHNNIEANLTGQEEMNTTMEIESSSVPQSKNYKKWLRISIYVFFVLACQALSTILGRVYYENGGKSTWMGTLVQLIGFPVLFLFRFFSQTKNPKPTEADFRKFSSFTILGSVYIVTGLLVSANSYMSSVGLLYLPVSTFSLILASQLAFTAFFSYFLNSQKFTPFIVNSLFLLTISSALLVVNTDSENTAKVSRVKYVIGIICTIGASAGIGLLLSLVQLILRKVLKKQTFSTVTDLVAYQSLVASCVVLIGLFASGEWKTLTSEMENYKLGKVPYVMTLASIAISWQVYTIGVVGLIFESSSVFSNSITAVGLPIVPVVAVIVFHDKMNASKIFSIILAIWGFISFVYQHYLDEKKLKTSHTSPVGDPHLLPAEEGHTNIHSV
Km: 296 ± 39 µM
